Test results from patent US20170275344A1, “POLYPEPTIDES AND USES THEREOF AS A DRUG FOR TREATMENT OF AUTOIMMUNE DISORDERS” (Compugen Ltd., priority 2014, published 2017).

Tested on: Male DBA/1O1aHsd mice
Experiment: CIA model, early stage treatment from day 18
Assay type: in vivo, mouse
Source text: The aim of this study was to estimate the effect of C1ORF32-P8-V1-ECD-mFc (SEQ ID NO:42) on disease development in a type II Collagen induced arthritis (CIA) mouse model upon administration at early stage of disease; i.e., when specific and predictive markers for RA development are present in the serum, but before onset of clinical symptoms.
In the CIA model, arthritis is induced by immunization with type II collagen in CFA on day 1 which is followed by boosting with type II collagen in CFA on day 21. Antibodies against both CII and cyclic citrullinated peptide (CCPs) appear early after immunization, before joint swelling is observed.
To evaluate the effect of early stage treatment with C1ORF32-P8-V1-ECD-mFc (SEQ ID NO:42) on disease development treatment started on day 18 and was given IP injection, Q2D to mice from day 18 until day 32.
Male DBA/1O1aHsd mice weighing 16-25 grams (mean 22 g) on day 18 of the study were obtained from Harlan, Inc., Indianapolis, Ind. Mice (10/group) were anaesthetized with Isoflurane, shaved at the base of the tail, and injected intradermally with 150 μl of Freund's Complete Adjuvant (Sigma) containing bovine type II collagen (Elastin Products, Owensville, Mo.) (2 mg/me at the base of the tail on day 0 and again on day 21. On study day 18, mice were randomized by body weight into treatment groups. Treatment was initiated after enrollment and continued every other day (Q2D at 48 h intervals) through study day 33. On study days 23-34, onset of arthritis occurred. Mice were terminated on study day 34. Clinical scores were given for each of the paws (right front, left front, right rear, left rear) on arthritis days 18-34.
Mice were weighed on study days 18, 20, 22, 24, 26, 28, 30, 32 and 34 (prior to necropsy). […]

B1: C1ORF32 ECD-Fc (SEQ ID NO:42): fusion protein of human C1ORF32 ECD fused to mouse immunoglobulin Fc (human-mouse fusion protein) (protein)
chain: LQVTVPDKKKVAMLFQPTVLRCHFSTSSHQPAVVQWKFKSYCQDRMGESLGMSSTRAQSLSKRNLEWDPYLDCLDSRRTVRVVASKQGSTVTLGDFYRGREITIVHDADLQIGKLMWGDSGLYYCIITTPDDLEGKNEDSVELLVLGRTGLLADLLPSFAVEIMGSENLYFQGSGEPRGPTIKPCPPCKCPAPNLLGGPSVFIFPPKIKDVLMISLSPIVTCVVVDVSEDDPDVQISWFVNNVEVHTAQTQTHREDYNSTLRVVSALPIQHQDWMSGKEFKCKVNNKDLPAPIERTISKPKGSVRAPQVYVLPPPEEEMTKKQVTLTCMVTDFMPEDIYVEWTNNGKTELNYKNTEPVLDSDGSYFMYSKLRVEKKNWVERNSYSCSVVHEGLHNHHTTKSFSRTPGK
modifications: Fusion protein human C1ORF32-ECD fused to mouse IgG2a Fc
3.3 mg/kg IP Q2D
  effect of the lower dose: No effect
10 mg/kg IP Q2D from day 18, vs PBS or mIgG2a, did not reach significance
  clinical arthritis score: inhibition of clinical arthritis score
10 mg/kg, from study day 30 until termination, data not shown
  body weight loss (percent change from baseline): significantly inhibited toward normal
